The values below come from PMC12344411, “Cytosolic- and membrane-localized oxidized indole-3-acetic acid formation regulates developmental auxin transients” (Plant physiology, 2025).

The target in one assay is T1, TIR1 (Arabidopsis thaliana, UniProt Q570C0).
T1 construct: with IAA7
T1 sequence (Q570C0 1-594): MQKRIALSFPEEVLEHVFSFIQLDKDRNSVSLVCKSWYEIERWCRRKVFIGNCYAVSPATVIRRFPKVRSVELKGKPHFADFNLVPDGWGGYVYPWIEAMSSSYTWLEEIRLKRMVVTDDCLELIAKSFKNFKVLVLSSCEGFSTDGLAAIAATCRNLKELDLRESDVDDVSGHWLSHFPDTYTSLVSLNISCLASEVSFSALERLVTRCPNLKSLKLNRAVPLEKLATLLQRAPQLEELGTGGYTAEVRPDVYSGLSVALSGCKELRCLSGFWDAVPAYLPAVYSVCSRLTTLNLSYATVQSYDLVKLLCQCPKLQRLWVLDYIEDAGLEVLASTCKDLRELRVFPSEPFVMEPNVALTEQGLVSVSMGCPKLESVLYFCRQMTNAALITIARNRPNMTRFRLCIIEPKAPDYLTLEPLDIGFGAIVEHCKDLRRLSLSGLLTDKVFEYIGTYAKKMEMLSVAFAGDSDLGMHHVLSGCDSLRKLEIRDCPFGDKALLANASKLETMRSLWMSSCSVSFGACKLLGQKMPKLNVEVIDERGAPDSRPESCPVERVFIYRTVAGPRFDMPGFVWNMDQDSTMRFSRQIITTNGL
T1 sequence (Q38825 1-243 partner): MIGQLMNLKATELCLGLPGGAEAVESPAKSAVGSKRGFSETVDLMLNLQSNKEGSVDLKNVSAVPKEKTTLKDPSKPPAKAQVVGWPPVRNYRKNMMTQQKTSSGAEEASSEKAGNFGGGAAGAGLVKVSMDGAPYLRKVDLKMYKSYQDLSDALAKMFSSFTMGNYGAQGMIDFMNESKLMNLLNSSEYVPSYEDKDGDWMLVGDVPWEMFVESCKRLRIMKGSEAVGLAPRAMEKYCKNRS
The assay is described as follows: synthetic yeast system, TIR1-dependent degradation of YFP-IAA7 and YFP-IAA17 by flow cytometry. The format is cell-based. In general terms: In flow cytometry, cells or beads pass a laser one at a time.

Assay [1] deals with TIR1 (Arabidopsis thaliana) (UniProt Q570C0). Description: BLI. As to conditions: cited from earlier work.
The target is the same in assay [2]. The assay is described as follows: BLI. As to conditions: cited from earlier work. The source holds these as a separate data set.
The target in another assay is T2, IAA7 (Arabidopsis thaliana, UniProt Q38825).
T2 chain: T1 sequence (Q38825 1-243 partner)
Description: BLI. (In general: BLI is a label-free optical method that tracks binding on a fibre tip over time.)

For orientation: Kd means the free concentration of one partner at which half of the binding sites on the other are occupied at equilibrium, for simple one-to-one binding.

Regarding `O=C(O)Cc1c[nH]c2ccccc12` [IAA, indole-3-acetic acid], at TIR1, the “synthetic yeast system, TIR1-dependent degradation of YFP-IAA7 and YFP-IAA17 by” value is “signals from YFP-IAA7 and YFP-IAA17 decreased rapidly upon addition of IAA”.

With IAA7 (from UniProt Q38825), the Kd in assay [1] was 20000 nM; in assay [2] it was 30 nM.

B1: TIR1 (protein)
chain: T1 sequence (Q570C0 1-594)
modifications: oxIAA (saturating)
As for B1, in the assay with IAA7, the Kd is 200 nM.
